Where a chain is given by its changes, count along the chain named.
Columns and labels:
[1] = molecular target: Polypeptides with M15-L-labeled P1 residues A, I, L, M, Q, V
[2] = molecular target: T1, M15-LAAR
T1 chain: LAAR

[3] = molecular target: T2, M19-LAAR
T2 chain: LAAR

[4] = molecular target: T3, M19-AAAR
T3 chain: AAAR

[5] = molecular target: M15-L-P1-AR peptides with D or E in the P1 position
[6] = molecular target: T4, Test peptide LMSHNARGAEDDVVRGGGGK linked to a DNA oligo
T4 chain: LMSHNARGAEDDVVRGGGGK

B1: M15-L_Z001 modified cleavase (Thermomonas hydrothermalis S46 DPP scaffold) (protein)
chain: MHKTRLVAALAAALATLAPAAWADEGMWVPQQLPEIAGALKKAGLKLDPKQLSDLTGDPMGAVVSLGGCTGSFVSPQGLVATNHHCAYGAIQLNSTPEKNLIKDGFNAPTQADELSAGPNARIYVLEGITDVTAQAKAAMAAAGNDPVARANALEAFEKKITSDCEAEPGYRCRVYSFMGGITYRLFKNLEIKDVRLVYAPPSSVGKFGGDIDMGMWPTHTGDFSFYRAYVGKDGKPAPYSKDNVPYRPKHWLKIADTPLGEGDFVMVAGYPGRTDRYALVAEFENTQNWLYPAISKAYKDQIALVEAAAKDNPEIAVKYAAALAGWNRTSKNFDGQLEGFKRNDVLAIKRREEAAVLEWLRARGKAGTPALEAHAALVKLVADTARTQERDLVLGSFNRTGIIGVAVNLYRLAIERQKPDAEREPGYQQRDLPVIEGSLKQMERRYVPAMDRQLRAYWLDRYVALPAAQHVAAVDAWLGGSDKAAAEAALARLDQSRLGSLEERLKWFNADRAAFEASTDPAIQYAVAVMPTLLAMEQQAKTRYGVALEARPRYLQAVVDYKKSKGQAVYPDANSTLRITYGHVKGYTGLNGKVYTPFTTLEEVAAKETGVEPFDNPKALLEAVAAKRYAGLADARLGTVPVNFLADLDITGGNSGSPVLDANGRLVGLAFAGTLESVASNWVFDPVLTRMISVDQRYMRWIMQEVMPAPQLLEELGVPPRQ
cleavage [1]: provided 100% cleavage | cleavage efficiency, time course 5, 10, 20, 30 and 60 minutes [2]: the M15-L_Z001 cleavase provided better specificity towards the M15-labeled polypeptide

B2: M19_053 cleavase clone (Thermomonas hydrothermalis S46 DPP scaffold) (protein)
chain: B1 chain with R329P
cleavage efficiency, time course 5, 10, 20, 30 and 60 minutes [3]: the newly selected cleavase clone M19_053 provided better specificity towards the M19-labeled polypeptide

B3: P1 cutter 1 (Thermomonas hydrothermalis S46 DPP scaffold) (protein)
chain: B1 chain with M214T, G215M, T219K, R329Y, A673D
cleavage, product identified by LC-MS [4]: the observed mass of the cleaved product was 230.2 Da, which matched well with the expected mass for the M19-A (M+H) part (231.2 Da)

B4: M15-L_Z002 modified cleavase (Thermomonas hydrothermalis S46 DPP scaffold) (protein)
chain: B1 chain
cleavage profile [5]: M15-L_Z002, having specificity towards D and E in the P1 position

B5: Unmodified dipeptidyl aminopeptidase DAP BII (SEQ ID NO: 13) (protein)
chain: GEGMWVPQQLPEIAGPLKKAGLKLSPQQISDLTGDPMGAVVALGGCTASFVSPNGLVVTNHHCAYGAIQLNSTAENNLIKNGFNAPTTADEVSAGPNARVFVLDEITDVTKDAKAAIAAAGDDALARTKALEAFEKKLIADCEAEAGFRCRLYSFSGGNTYRLFKNLEIKDVRLAYAPPGSVGKFGGDIDNWMWPRHTGDFAFYRAYVGKDGKPAAFSKDNVPYQPKHWLKFADQPLGAGDFVMVAGYPGSTNRYALAAEFDNTAQWTYPTIARHYKNQIAMVEAAGKQNADIQVKYAATMAGWNNTSKNYDGQLEGFKRIDAAGQKLREEAAVLGWLKGQGAKGQPALDAHAKLLDLLEQSKATRDRDLTLALFNNTAMLGSATQLYRLSIEREKPNAERESGYQERDLPAIEGGLKQLERRYVAAMDRQLQEYWLNEYIKLPADQRVAAVDAWLGGNDAAAVKRALDRLAGTKLGSTEERLKWFAADRKAFEASNDPAIQYAVAVMPTLLKLEQERKTRAGENLAARPVYLQALADYKKSQGEFVYPDANLSLRITFGNVMGYAPKDGMEYTPFTTLEGVVAKETGQDPFDSPKALLDAVAAKRYGGLEDKRIGSVPVNYLSDLDITGGNSGSPVLDAHGKLVGLAFDGNWESVSSNWVFDPKMTRMIAVDGRYLRWIMQEVYPAPQLLKEMNVGK
cleavage of a peptide-DNA fusion, gel bands at 0, 5, 30, 45, 60 min [6]: would continue gradually cleaving the polypeptide, creating multiple bands during the cleavage reaction (FIG. 10)

Reference: patent US20230257727
